Data taken from patent US6087375A, “Methods of treating or preventing thromboses” (priority 1999, dated 2000).

Target: rabbit serum albumin (RSA) (Oryctolagus cuniculus, UniProt P49065)
Experiment: Mass spectrometric analysis of conjugation to RSA (HPLC/ESIMS, MALDI-TOFMS)
Type: binding
Settings: LC/MS; 15 μM RSA, 200 μM argatroban-C6 NHS ester, 1 hour (Example 8)
Method: All samples were analyzed using a high performance liquid chromatograph (HPLC) coupled in-line to an electrospray ionization (ESI) mass spectrometer (MS) which is termed HPLC/ESIMS. Some samples were also analyzed using a matrix-assisted laser desorption ionization (MALDI) time-of-flight (TOF) mass spectrometer which is termed (MALDI-TOFMS).
Samples for HPLC/ESIMS were either prepared as duplicate reaction samples or were part of the same reaction samples which were used in the ELISA assays described below. These samples were injected directly only the HPLC/ESIMS without any manipulation other than dilution with water, where the PBS, DMSO, and unreacted derivative molecules are separated from the protein-argatroban derivative molecule conjugate. Samples for MALDI-MS were first HPLC-purified and mixed 1:1 directly on the stainless steel analysis plate with a matrix of 10 mg/ml sinnapinic acid in 50% acetonitrile/50% water. The mixture was then dried with a gentle flow of air to allow for crystallization and inserted into the instrument for laser ionization.
The HPLC is a Hewlett Packard 1090 Series II liquid chromatogram with a diode array detector. The column used for separation is a Brownlee aquapore OD-300 reversed phase C18 column, 1 mm×10 cm, 300 Å pore size, 7 μm particle diameter. The mass spectrometer to which the HPLC is connected using fused Silica capillary tubing is a Sciex API-300 triple quadrupole mass spectrometer with an ionspray source to allow for atmospheric pressure ionization of a liquid flowing continuously into the instrument. The MALDI-TOFMS is a Perceptive Biosystems Voyager Elite DE instrument run in the linear mode.
The conjugate was prepared according to the following protocol. […] Sham samples consist of the RSA incubated for the same length of time at RT in 2% DMSO in PBS. Each of the samples was then concentrated to a final volume of 1.5 mL using Amicon Centricon 30 filtration/concentration devices. The concentrated samples were then desalted on Pierce's 5 ML Kwiksep excellulose plastic desalting columns. The excluded volumes containing RSA or argatroban-C6-RSA were then subjected to BCA microprotein estimation and lyophilization. In addition, these samples were analyzed by LC/MS, sandwich ELISA assays (described above) to measure thrombin binding and immunoblotting.

Chain of rabbit serum albumin (RSA) (P49065 25-608): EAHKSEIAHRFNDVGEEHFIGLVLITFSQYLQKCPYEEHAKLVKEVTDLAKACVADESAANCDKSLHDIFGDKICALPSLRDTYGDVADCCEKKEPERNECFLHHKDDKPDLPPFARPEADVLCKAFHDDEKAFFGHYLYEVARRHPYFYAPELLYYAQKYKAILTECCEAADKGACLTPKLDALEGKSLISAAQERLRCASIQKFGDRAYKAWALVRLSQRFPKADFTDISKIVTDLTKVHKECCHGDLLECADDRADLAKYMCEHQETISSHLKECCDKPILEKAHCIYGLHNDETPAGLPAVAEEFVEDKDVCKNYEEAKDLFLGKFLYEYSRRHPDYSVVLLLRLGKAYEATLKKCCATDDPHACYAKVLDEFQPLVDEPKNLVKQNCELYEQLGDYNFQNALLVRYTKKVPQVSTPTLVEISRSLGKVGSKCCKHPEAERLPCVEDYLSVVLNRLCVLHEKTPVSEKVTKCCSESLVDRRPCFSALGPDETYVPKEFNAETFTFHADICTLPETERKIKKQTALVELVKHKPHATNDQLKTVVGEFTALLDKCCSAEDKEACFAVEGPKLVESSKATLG

RSA-argatroban-C6 conjugate: rabbit serum albumin covalently bound by argatroban-C6 NHS ester molecules
average of tethered argatroban molecules conjugated to each RSA molecule: 10 tethered argatroban molecules
